Laboratory results as given in patent US10240123B2, “Method for preparing induced paraxial mesoderm progenitor (IPAM) cells and their use” (INSERM (INSTITUT NATIONAL DE LA SANTE ET DE LA RECHERCHE …, priority 2011, dated 2019).
Entries after “also recorded” stand apart in the source; their conditions may differ.

Legend:
BMP4 = BMP4 and PSM marker expression in Msgn1-YFP+ cells (microarray, qRT-PCR); assay type: cell-based, mouse; details: for iPAM maturation, PSM specific marker expression: added to differentiation medium
Protocol: Mouse E9.5 embryo PSMs were microdissected and processed as previously described (Krol et al, 2011), and prepared samples were run on Affymetrix GeneChip arrays. For differentiated cell cultures, iPAMs were sorted by flow-cytometry based on their Msgn1-YFP+ expression, and samples were prepared for microarrays. Experiments were conducted on biological triplicates. Datasets were processed using Affymetrix Microarray Suite (MAS) 5.0. Total RNA was extracted from ES cell cultures using Trizol (Invitrogen) or with the […] plus mini-kit (Qiagen). RT-PCR was performed on 5 ng total RNA using QuantiFast SYBR Green RT-PCR Kit (Qiagen), appropriate primers and run on a LightCycler 480II (Roche). GAPDH was used as the internal control. To counteract this BMP4 activity, we tested the effect of addition of recombinant Noggin (Nog) protein known to inhibit BMP4, to the differentiation medium. […] We further defined both the optimal concentration and timing of Noggin addition. […] To better characterize the impact of Noggin on Msgn1-YFP+ cells, we performed microarrays on the Msgn1-YFP+ induced paraxial mesoderm progenitors (iPAM) population at day 3 and 4 of differentiation (FIG. 11, compare conditions RDN and RD). We screened a set of BMP inhibitors, including recombinant proteins Noggin (Nog), Chordin (Chd), Chordin-like 1 (Chdl1), Follistatin (Fst), Follistatin-like 1 (Fstl1), Dan family protein including Cerberus 1 (Cerberus) and Gremlin 1 (Grem1); at varying concentration range (10-200 ng/mL), and various time-window (day 0-4, day 1-4) and analyzed the impact on BMP4 and the PSM marker Tbx6 expression. Additionally, we tested the chemical compound Dorsomorphin (Compound C), a specific BMP type I receptor inhibitor, at various concentration (0.1-1 μM) and various time-window (day 0-4, day 1-4).

Msgn1RepV mouse ES cells = assay: Msgn1RepV reporter mouse ES cell differentiation, YFP+ (iPAM) cells by flow cytometry; assay type: cell-based; details: for effect on number of YFP+ cells (iPAM induction): 4 days of differentiation
Protocol: Undifferentiated mouse ES cells […] derived) were maintained on gelatin-coated dishes in DMEM supplemented with 15% fetal bovine serum (FBS; from PAA), penicillin, streptomycin, 2 mM L-Glutamine, 0.1 mM non essential amino acids, 1 mM sodium pyruvate, 0.2% β-mercaptoethanol and 1,500 U/mL LIF. ES cells were co-cultured with mytomicin-inactivated MEFs (feeders). Undifferentiated human ES cells were cultured on plates coated with matrigel (BD Biosciences) in mTeSR medium ([…] Technologies). Cultures were maintained in an incubator in 5% CO2 at 37° C. ES cells were trypsinized and plated at various densities in gelatin coated, feeder-free, 24 well plates directly in serum-based (15% FBS) or serum-replacement (15% KSR, Invitrogen) conditions supplemented with factors, and DMSO (Sigma). Recombinant proteins were obtained commercially (R&D) and stock solutions were prepared according to manufacturer's recommendation. The GSK-3ß inhibitor CHIR99021 and the BMP type I receptors inhibitor Dorsomorphin were purchased from Stemgent and prepared according to the manufacturer's recommendations. Fluorescent reporter analysis and image acquisition were done on a Zeiss Axiovert system. Cell cultures were dissociated by trypsinization, analyzed by flow cytometry on a FACScalibur (BD Biosciences) according to YFP expression. Data were further analyzed with MoFlo software (Beckman Coulter) and FlowJo software. In order to optimize the differentiation conditions for paraxial mesoderm progenitors, we developed a manual screening assay, testing candidate growth factors and drugs interfering with various signaling pathways on ES cells. The […] reporter cells were plated at a defined density in 24-well plates coated with gelatin (0.1%). Two basal culture media were selected: a DMEM based medium containing 15% fetal bovine serum (FBS, high serum) and a defined serum-free medium containing 15% KSR (Invitrogen/Gibco). These basal media were supplemented with candidate factors on day 0 of differentiation. Control and experimental conditions were cultured in parallel. Cells were left to differentiate for three to four days with medium changed on day 2 or 3. Cell cultures were analyzed on day 3 and 4 of differentiation visually and by flow cytometry for YFP+ population quantification.

HUES1 cells = assay: qRT-PCR of paraxial mesoderm progenitor markers in differentiating human ES cells; assay type: cell-based; details: 15% FBS containing medium, 3 to 10 days of culture
Protocol: Comparison of the expression of paraxial mesoderm progenitor markers Brachyury (A), PDGFRa (B), Tbx6 (C), Msgn1 (D) measured by Q RT-PCR in HUES1 undifferentiated or cultured in 15% FBS containing medium with or without Rspo3 for up to 10 days. Relative expression to undifferentiated HUES1 cells is shown (fold induction).
Total RNA was extracted from ES cell cultures using Trizol (Invitrogen) or with the Rnaeasy plus mini-kit (Qiagen). RT-PCR was performed on 5 ng total RNA using QuantiFast SYBR Green RT-PCR Kit (Qiagen), appropriate primers and run on a LightCycler 480II (Roche). GAPDH was used as the internal control.
Next, to confirm that R-spondin also induces paraxial mesoderm progenitors (iPAM) cells from human ES cells differentiation, HUES1 cells were plated as single cells and differentiated in 15% FBS containing medium with or without Rspo3. qRT-PCR time course analysis for paraxial mesoderm progenitor markers expression was performed (FIG. 10).

canonical Wnt signaling = assay: BAT-luc luciferase reporter for canonical Wnt signaling in ES cells; assay type: cell-based, mouse; details: Rspo3 10 ng/mL, 1% FBS medium

## c1cc(-c2cnn3cc(-c4ccc(OCCN5CCCCC5)cc4)cnc23)ccn1 [Dorsomorphin, 6-[4-(2-Piperidin-1-yl-ethoxy)phenyl]-3-pyridin-4-yl-pyrazolo [1,5-a]pyrimidine, reference compound]
BMP4
  iPAM maturation, PSM specific marker expression: promoting induced paraxial mesoderm progenitors (iPAM) maturation

## Cc1c[nH]c(-c2cnc(NCCNc3ccc(C#N)cn3)nc2-c2ccc(Cl)cc2Cl)n1 [CHIR99021, reference compound]
Msgn1RepV mouse ES cells; 15% FBS medium
  effect on number of YFP+ cells (iPAM induction): as efficient as Rspo-3

## C[S+](C)[O-] [DMSO, Dimethyl sulfoxide, reference compound]
Msgn1RepV mouse ES cells; 15% FBS medium
  effect on number of YFP+ cells (iPAM induction): increase of YFP+ cells

B1: Noggin: recombinant protein known to inhibit BMP4 (protein, UniProt Q13253 28-232, looked up)
Noggin: QHYLHIRPAPSDNLPLVDLIEHPDPIFDPKEKDLNETLLRSLLGGHYDPGFMATSPPEDRPGGGGGAAGGAEDLAELDQLLRQRPSGAMPSEIKGLEFSEGLAQGKKQRLSKKLRRKLQMWLWSQTFCPVLYAWNDLGSRFWPRYVKVGSCFSKRSCSVPEGMVCKPSKSVHLTVLRWRCQRRGGQRCGWIPIQYPIISECKCSC
Msgn1RepV mouse ES cells; added to differentiation medium
  total number of Msgn1-YFP+ iPAM cells or total cell number in culture: does not change the total number
BMP4
  iPAM maturation, PSM specific marker expression: upregulation of several PSM specific markers; also recorded: promoting induced paraxial mesoderm progenitors (iPAM) maturation
BMP4; added to differentiation medium with Rspo3 and DMSO, day 3 and 4
  BMP4 expression in Msgn1-YFP+ cells: effectively repress BMP4 expression; also recorded: represses BMP4 expression

B2: Follistatin: recombinant protein BMP inhibitor (protein, UniProt P19883 30-344, looked up)
Follistatin: GNCWLRQAKNGRCQVLYKTELSKEECCSTGRLSTSWTEEDVNDNTLFKWMIFNGGAPNCIPCKETCENVDCGPGKKCRMNKKNKPRCVCAPDCSNITWKGPVCGLDGKTYRNECALLKARCKEQPELEVQYQGRCKKTCRDVFCPGSSTCVVDQTNNAYCVTCNRICPEPASSEQYLCGNDGVTYSSACHLRKATCLLGRSIGLAYEGKCIKAKSCEDIQCTGGKKCLWDFKVGRGRCSLCDELCPDSKSDEPVCASDNATYASECAMKEAACSSGVLLEVKHSGSCNSISEDTEEEEEDEDQDYSFPISSILEW
BMP4
  iPAM maturation, PSM specific marker expression: promoting induced paraxial mesoderm progenitors (iPAM) maturation

B3: Dkk1: secreted extracellular Wnt antagonist, canonical Wnt inhibitor (protein, UniProt O94907 32-266, looked up)
Dickkopf-related protein 1: TLNSVLNSNAIKNLPPPLGGAAGHPGSAVSAAPGILYPGGNKYQTIDNYQPYPCAEDEECGTDEYCASPTRGGDAGVQICLACRKRRKRCMRHAMCCPGNYCKNGICVSSDQNHFRGEIEETITESFGNDHSTLDGYSRRTTLSSKMYHTKGQEGSVCLRSSDCASGLCCARHFWSKICKPVLKEGQVCTKHRRKGSHGLEIFQRCYCGEGLSCRIQKDHHQASNSSRLHTCQRH
Msgn1RepV mouse ES cells; 15% FBS medium
  effect on number of YFP+ cells (iPAM induction): sharp decrease of YFP+ induction

B4: R-spondin3: secreted protein of the R-spondin family that activates the Wnt signaling pathway; recombinant (protein, UniProt Q9BXY4 22-272, looked up)
R-spondin-3: QNASRGRRQRRMHPNVSQGCQGGCATCSDYNGCLSCKPRLFFALERIGMKQIGVCLSSCPSGYYGTRYPDINKCTKCKADCDTCFNKNFCTKCKSGFYLHLGKCLDNCPEGLEANNHTMECVSIVHCEVSEWNPWSPCTKKGKTCGFKRGTETRVREIIQHPSAKGNLCPPTNETRKCTVQRKKCQKGERGKKGRERKRKKPNKGESKEAIPDSKSLESSKEIPEQRENKQQQKKRKVQDKQKSVSVSTVH
HUES1 cells
  expression of paraxial mesoderm progenitor markers (qRT-PCR): induction of the paraxial mesoderm progenitor markers, Brachyury, PDGFRa, Tbx6 and Msgn1 is observed; also recorded: Strong activation of Msgn1 and Tbx6
Canonical Wnt signaling
  luciferase from BAT-luc canonical Wnt reporter: strongly activated
Canonical Wnt signaling; listed as Rspo3
  luciferase from BAT-luc canonical Wnt reporter: strongly activates the canonical Wnt response
Msgn1RepV mouse ES cells; 10 ng/mL, both FBS based and KSR based medium, 4 days
  induction of YFP+ cells: up to 70%
Msgn1RepV mouse ES cells; 15% FBS medium
  effect on number of YFP+ cells (iPAM induction): significantly increase the number of YFP+ cells
Msgn1RepV mouse ES cells; day 4 of differentiation, 15% FBS medium, R-spondin3 10 ng/mL
  YFP+ population of the total population: more than 70%

B5: R-spondin2: secreted protein of the R-spondin family that activates the Wnt signaling pathway; recombinant (protein, UniProt Q6UXX9 22-243, looked up)
R-spondin-2: QGNRWRRSKRASYVSNPICKGCLSCSKDNGCSRCQQKLFFFLRREGMRQYGECLHSCPSGYYGHRAPDMNRCARCRIENCDSCFSKDFCTKCKVGFYLHRGRCFDECPDGFAPLEETMECVEGCEVGHWSEWGTCSRNNRTCGFKWGLETRTRQIVKKPVKDTILCPTIAESRRCKMTMRHCPGGKRTPKAKEKRNKKKKRKLIERAQEQHSVFLATDRANQ
Msgn1RepV mouse ES cells; 15% FBS medium
  effect on number of YFP+ cells (iPAM induction): significantly increase the number of YFP+ cells
